Laboratory results: the supplement of paper PMC10567573

B1: KCNK9 (parent)
chain: CFITLTTIGFGDYVALQTKGALQK

Variants of: B1
Assay: protein stability index of a GFP-peptide fusion (GPS, HEK-293T) (PSI 1-6); higher = more stable
Details: c terminus: a fixed tail appended
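Also: lentivirally expressed fusions sorted by FACS into six bins by GFP to DsRed ratio, PSI derived from sequencing read proportions per bin multiplied by bin number.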

Protein stability index, by site and new letter:
G20: I 2.58 | A 3.49 | E 3.59 | T 5.14 | Q 3.38 | F 3.39 | D 3.25 | R 3.65 | W 3.87 | P 2.55 | Y 2.54 | S 3.74 | N 3.17 | C 3.1 | H 2.6
A15: V 2.68 | E 2.93 | S 4.26 | H 3.04 | C 3.23 | R 3.46 | G 2.48 | I 3.38 | W 3.31 | K 2.38 | Y 2.43 | Q 2.3 | N 2.76 | F 2.37 | L 2.64 | D 3.31 | T 3.18 | P 3.05 | M 3.04
T6: Q 1.51 | N 2.89 | L 3.01 | D 2.36 | R 2.85 | I 2.13 | Y 2.71 | K 2.11 | G 1.69 | S 3.54 | V 3.1 | C 3.41 | H 1.44 | M 4.77 | P 1.21 | F 2.57 | E 1.83
A21: C 3.22 | D 2.88 | N 2.39 | F 3.44 | E 3.6 | L 3.54 | P 2.97 | H 3.21 | M 1.99 | S 2.43 | V 2.29 | R 3.3 | Q 2.21 | I 2.44 | W 3.01 | T 2.56 | K 3.05 | G 2.1
F10: L 2.73 | E 2.46 | A 2.05 | N 1.58 | T 2.59 | S 1.39 | M 2.62 | G 2.16 | P 2.78 | V 2.06 | D 2.17 | W 2.33 | Q 1.56 | H 2.73 | R 1.7 | Y 2.12 | K 1.85 | C 2.79
Q23: F 2.87 | A 3.76 | E 1.94 | G 3.46 | I 3.28 | D 2.98 | H 3.06 | C 2.6
L16: S 1.75 | R 2.74 | W 2.27 | I 2.65 | A 3.26 | M 1.56 | G 1.89 | E 3.25 | Q 2.65 | Y 2.44 | N 2.54 | K 3.4 | P 2.64 | H 2.43 | V 3.73 | C 2.03 | D 2.23 | T 2.26 | F 2.53
T18: N 2.42 | D 1.76 | M 2.49 | P 1.64 | Y 3.26 | S 2.27 | L 3.51 | F 1.72 | I 2.12 | R 2.64 | E 2.28 | C 3.43 | H 3 | Q 2.63 | A 2.8 | W 3.1 | K 1.58
Q17: E 2.76 | I 2.27 | N 2.33 | M 2.23 | F 3.02 | P 3.82 | W 2.58 | V 3.42 | R 2.83 | G 2.38 | H 3.57 | D 2.17 | C 3.88 | T 2.08 | Y 3.01 | K 2.82 | L 2.23
L22: F 2.72 | V 2.62 | M 3.38 | W 2.21 | N 1.91 | G 2.86 | I 2.06 | R 2.12 | A 3.37 | D 4.33 | C 2.29 | S 3.93 | P 2.56 | K 2.4 | Q 2.46 | E 3.67 | Y 2.37 | T 3.37
I8: R 1.67 | N 2.27 | H 3.24 | L 3.63 | C 2.37 | Q 3.37 | M 2.03 | K 1.53 | D 2.14 | P 2.39 | T 3.29 | A 2.08 | G 2.78 | Y 1.78 | F 2.8 | E 2.39 | S 2.95 | V 3.42
G11: N 2.99 | S 2.18 | K 2.73 | P 1.99 | R 3.04 | T 1.62 | C 3.41 | H 3.08 | Q 2.7 | Y 3.95 | L 3.22 | I 2.91 | A 3.32 | E 3.16 | M 1.85 | D 3.33 | V 2.31 | F 3.25
K19: S 2.11 | L 2.36 | P 4.04 | Q 2.16 | T 4.24 | I 2.23 | G 1.24 | H 1.98 | Y 3.38 | E 2.46 | D 3.22 | N 4.09 | R 3.19 | F 1.95 | A 3.43 | V 3.26 | W 2.13
Y13: I 2.31 | R 2.32 | L 2.38 | P 2.92 | W 2.93 | Q 2.05 | C 3.93 | D 2.1 | A 3.35 | E 2.12 | K 2.24 | T 3.55 | S 2.51 | M 3.32 | N 2.04 | G 2.42 | H 2.07 | V 2.57
G9: S 1.73 | E 1.58 | K 2.5 | H 2.51 | I 2.7 | V 4.79 | C 2.83 | L 3.46 | T 2.21 | M 2.8 | D 2.33 | P 1.99 | R 1.36 | A 3.95 | W 2.9 | F 3.77 | N 2.02 | Q 2.81 | Y 1.93
D12: Q 2.05 | C 3.65 | N 2.71 | I 3.71 | F 2.49 | K 2.82 | E 2.69 | M 4.64 | R 2.62 | H 3.68 | Y 3.4 | T 2.49 | V 2.96 | W 2.12 | G 3.42 | P 2.67 | A 3.21
T7: K 1.73 | E 2.94 | M 2.54 | P 2.32 | L 3.38 | N 1.78 | S 2.53 | Y 2.13 | A 4.42 | D 2.15 | R 2.44 | H 2.63 | F 3.36 | W 4.77 | I 3.49 | Q 2.52 | V 2.77
L5: I 3.75 | M 2.65 | T 1.57 | W 2.72 | E 2.38 | S 1.6 | K 1.59 | Q 2.07 | P 2.17 | D 2.42 | Y 3.03 | R 2.24 | H 1.77 | N 2.12 | C 3.26 | F 3.73 | G 2.48 | A 1.85 | V 2.34
V14: N 1.86 | R 2.7 | W 2.71 | G 2.69 | K 1.82 | S 2.06 | E 2.12 | D 2.74 | H 2.99 | A 3.25 | Y 3.12 | F 3.46 | Q 3.43 | T 2.64 | L 3.31 | M 2.02 | P 2.82 | I 2.86
T4: S 3.03 | P 2.13 | Q 1.99 | N 3.41 | W 2.91 | R 2.99 | V 2.25
